Test results from article PMC4866688, “Trypanosoma brucei DHFR-TS Revisited: Characterisation of a Bifunctional and Highly Unstable Recombinant Dihydrofolate Reductase-Thymidylate Synthase” (PLoS Neglected Tropical Diseases, 2016).

Molecular target: the molecule itself
Test: SEC; Superdex 200 column, Bio-Rad gel filtration standards; purified cleaved enzyme, DHFR activity and absorbance at 280 nm followed

B1: Trypanosoma brucei dihydrofolate reductase-thymidylate synthase, Tsf tag removed with TEV protease (enzyme, UniProt Q27783 1-527, looked up)
chain: MLSLTRILRKKIPVHELAGKISRPPLRPFSVVVASDEKGGIGDGGTIPWEIPEDMQYFRRVTTNLRGKNVKPSPSKRNAVVMGRKTWDSLPPKFRPLSNRLNVVLSRSATKEQLLAGIPDPIKRAEAANDVVAVNGGLEDALRMLVSKEHTSSIETVFCIGGGTIYKQALCAPCVNVLQAIHRTVVRPASNSCSVFFDIPAAGTKTPEGLELVRESITDERVSTGAGGKKYQFEKLVPRNSEEEQYLNLVGRIIDEGCTKCDRTGVGTRSLFGAQMRFSLRNNRLPLLTTKRVFWRGVCEELLWFLRGETNAKLLSDKGIHIWDGNGSRAFLDSRGLTDYDEMDLGPVYGFQWRHFGADYISCKVDSEGKGVDQIANIVKSLIENPDDRRMICTAWNPAALPRMALPPCHMMAQFYVSNGELSCMLYQRSCDMGLGVPFNIASYALLTFLMAKASGLRPGELVHTLGDAHVYSNHVEPCRKQLKRVPRPFPFIVFKQDKEFLEDFQESDIEVIDYSPYPVISMEMAV
notes: bifunctional dihydrofolate reductase-thymidylate synthase of Trypanosoma brucei strain 427; N-terminal DHFR domain (ends at Arg 239), linker, C-terminal TS domain; also called TbDHFR-TS; cleaved TbDHFR-TS; not shown: Tsf (E. coli elongation factor Ts), N-terminal, cleaved; His6, internal (between Tsf and the TEV site), cleaved
In the case of B1, the “stoichiometry N” value is reported as 2.
